Measured values published in PMC10663500, “High-throughput analysis system of interaction kinetics for data-driven antibody design” (Scientific Reports, 2023).

Legend:
[1] = molecular target: T1, human programmed cell death protein 1 (hPD-1) C93S (aa 24-167) (Homo sapiens, UniProt Q15116, C93S); assay: SPR; Carterra LSA; Fab from the ammonium sulfate precipitate of the culture supernatant immobilised on a NiHC200M chip; hPD-1 (1-1024 nM) or mPD-1-Fc (4-1024 nM) as analyte, fourfold dilution series, no regeneration; HBS-EP pH 7.4, 25 °C; medians over the spots of a construct, KD = koff/kon; conditions: one partner purified
T1 construct: made as a fusion with a TEV site and human Fc; the Fc was cut off with TEV protease; source: Expi293F, purified (Protein A, TEV cleavage of Fc, SEC; monomer fractions); not shown: Fc (human), C-terminal, cleaved
Summary of the method: (§1)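 On a Carterra LSA at 25 °C, duplicate captures of Fabs were made on a NiHC200M chip; the Fabs came from Brevibacillus culture supernatants, were precipitated with ammonium sulfate and were redissolved in HBS-EP. Fourfold series of human PD-1 (1–1024 nM) or mouse PD-1-Fc (4–1024 nM) were passed over without regeneration, with 10 min association and 5 min dissociation. Binders that were not confirmed were assigned kon 10^3 […] and koff 10^−2 s^−1. The kdka model, run with slow- or fast-dissociation settings and keeping the better fit, gave the rates, and KD was taken as koff/kon from the median values for each construct.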

[2] = molecular target: T2, mouse programmed cell death protein 1 Fc fusion protein (mPD-1-Fc), mPD-1 C60S (aa 25-167) (Mus musculus, UniProt Q02242, stabilised); assay: as above; conditions: one partner purified
T2 construct: not cleaved; source: Expi293F, purified (Protein A, SEC; dimeric fraction); not shown: Fc (human), C-terminal, kept
Summary of the method: as §1

T1 sequence (Q15116 24-167 C93S): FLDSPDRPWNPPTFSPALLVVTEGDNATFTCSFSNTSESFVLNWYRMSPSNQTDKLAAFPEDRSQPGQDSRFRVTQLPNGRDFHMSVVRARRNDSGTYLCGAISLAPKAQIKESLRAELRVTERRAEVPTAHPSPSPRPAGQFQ

Binder | Kd [1] [nM] | koff [1] [s⁻¹] | kon [1] [M⁻¹ s⁻¹] | Kd [2] [nM] | koff [2] [s⁻¹] | kon [2] [M⁻¹ s⁻¹]
toripalimab Fab L.F94Y (Fab, V domains shown, as the heavy chain of Sm3; light chain of Sm3 with this change; numbers count from the chain's first residue; source: Brevibacillus, culture supernatant (ammonium sulfate precipitate); not shown: 6xHis, C-terminal, kept; 6xHN, C-terminal, kept) VH: QGQLVQSGAEVKKPGASVKVSCKASGYTFTDYEMHWVRQAPIHGLEWIGVIESETGGTAYNQKFKGRVTITADKSTSTAYMELSSLRSEDTAVYYCAREGITTVATTYYWYFDVWGQGTTVTVSS VL: DVVMTQSPLSLPVTLGQPASISCRSSQSIVHSNGNTYLEWYLQKPGQSPQLLIYKVSNRFSGVPDRFSGSGSGTDFTLKISRVEAEDVGVYYCYQGSHVPLTFGQGTKLEIK | < 0.968 | < 1e-05 | 10300 | 155 | 0.0129 | 83200
toripalimab Fab L.S61A (Fab, V domains shown, as the heavy chain of Sm3; light chain of Sm3 with this change; numbers count from the chain's first residue; source: Brevibacillus, culture supernatant (ammonium sulfate precipitate); not shown: 6xHis, C-terminal, kept; 6xHN, C-terminal, kept) VH: QGQLVQSGAEVKKPGASVKVSCKASGYTFTDYEMHWVRQAPIHGLEWIGVIESETGGTAYNQKFKGRVTITADKSTSTAYMELSSLRSEDTAVYYCAREGITTVATTYYWYFDVWGQGTTVTVSS VL: DVVMTQSPLSLPVTLGQPASISCRSSQSIVHSNGNTYLEWYLQKPGQSPQLLIYKVSNRFAGVPDRFSGSGSGTDFTLKISRVEAEDVGVYYCFQGSHVPLTFGQGTKLEIK | 1.39 | 2.72e-05 | 19600 | 103 | 0.00447 | 43400
toripalimab Fab L.R59A (Fab, V domains shown, as the heavy chain of Sm3; light chain of Sm3 with this change; numbers count from the chain's first residue; source: Brevibacillus, culture supernatant (ammonium sulfate precipitate); not shown: 6xHis, C-terminal, kept; 6xHN, C-terminal, kept) VH: QGQLVQSGAEVKKPGASVKVSCKASGYTFTDYEMHWVRQAPIHGLEWIGVIESETGGTAYNQKFKGRVTITADKSTSTAYMELSSLRSEDTAVYYCAREGITTVATTYYWYFDVWGQGTTVTVSS VL: DVVMTQSPLSLPVTLGQPASISCRSSQSIVHSNGNTYLEWYLQKPGQSPQLLIYKVSNAFSGVPDRFSGSGSGTDFTLKISRVEAEDVGVYYCFQGSHVPLTFGQGTKLEIK | < 0.377 | < 1e-05 | 26600 | 130 | 0.00551 | 42400
toripalimab Fab L.R59Y (Fab, V domains shown, as the heavy chain of Sm3; light chain of Sm3 with this change; numbers count from the chain's first residue; source: Brevibacillus, culture supernatant (ammonium sulfate precipitate); not shown: 6xHis, C-terminal, kept; 6xHN, C-terminal, kept) VH: QGQLVQSGAEVKKPGASVKVSCKASGYTFTDYEMHWVRQAPIHGLEWIGVIESETGGTAYNQKFKGRVTITADKSTSTAYMELSSLRSEDTAVYYCAREGITTVATTYYWYFDVWGQGTTVTVSS VL: DVVMTQSPLSLPVTLGQPASISCRSSQSIVHSNGNTYLEWYLQKPGQSPQLLIYKVSNYFSGVPDRFSGSGSGTDFTLKISRVEAEDVGVYYCFQGSHVPLTFGQGTKLEIK | < 0.356 | < 1e-05 | 28100 | 213 | 0.00916 | 43000
toripalimab Fab L.H98Y (Fab, V domains shown, as the heavy chain of Sm3; light chain of Sm3 with this change; numbers count from the chain's first residue; source: Brevibacillus, culture supernatant (ammonium sulfate precipitate); not shown: 6xHis, C-terminal, kept; 6xHN, C-terminal, kept) VH: QGQLVQSGAEVKKPGASVKVSCKASGYTFTDYEMHWVRQAPIHGLEWIGVIESETGGTAYNQKFKGRVTITADKSTSTAYMELSSLRSEDTAVYYCAREGITTVATTYYWYFDVWGQGTTVTVSS VL: DVVMTQSPLSLPVTLGQPASISCRSSQSIVHSNGNTYLEWYLQKPGQSPQLLIYKVSNRFSGVPDRFSGSGSGTDFTLKISRVEAEDVGVYYCFQGSYVPLTFGQGTKLEIK | 0.737 | 1.34e-05 | 18100 | 396 | 0.0148 | 37400
toripalimab Fab L.H98A (Fab, V domains shown, as the heavy chain of Sm3; light chain of Sm3 with this change; numbers count from the chain's first residue; source: Brevibacillus, culture supernatant (ammonium sulfate precipitate); not shown: 6xHis, C-terminal, kept; 6xHN, C-terminal, kept) VH: QGQLVQSGAEVKKPGASVKVSCKASGYTFTDYEMHWVRQAPIHGLEWIGVIESETGGTAYNQKFKGRVTITADKSTSTAYMELSSLRSEDTAVYYCAREGITTVATTYYWYFDVWGQGTTVTVSS VL: DVVMTQSPLSLPVTLGQPASISCRSSQSIVHSNGNTYLEWYLQKPGQSPQLLIYKVSNRFSGVPDRFSGSGSGTDFTLKISRVEAEDVGVYYCFQGSAVPLTFGQGTKLEIK | < 0.436 | < 1e-05 | 22900 | 120 | 0.00523 | 43600
toripalimab Fab L.F94A (Fab, V domains shown, as the heavy chain of Sm3; light chain of Sm3 with this change; numbers count from the chain's first residue; source: Brevibacillus, culture supernatant (ammonium sulfate precipitate); not shown: 6xHis, C-terminal, kept; 6xHN, C-terminal, kept) VH: QGQLVQSGAEVKKPGASVKVSCKASGYTFTDYEMHWVRQAPIHGLEWIGVIESETGGTAYNQKFKGRVTITADKSTSTAYMELSSLRSEDTAVYYCAREGITTVATTYYWYFDVWGQGTTVTVSS VL: DVVMTQSPLSLPVTLGQPASISCRSSQSIVHSNGNTYLEWYLQKPGQSPQLLIYKVSNRFSGVPDRFSGSGSGTDFTLKISRVEAEDVGVYYCAQGSHVPLTFGQGTKLEIK | < 2.46 | < 1e-05 | 4060 | 177 | 0.000967 | 5460
toripalimab Fab H.I51A (Fab, V domains shown, heavy chain of Sm3 with this change; numbers count from the chain's first residue; as the light chain of Sm3; source: Brevibacillus, culture supernatant (ammonium sulfate precipitate); not shown: 6xHis, C-terminal, kept; 6xHN, C-terminal, kept) VH: QGQLVQSGAEVKKPGASVKVSCKASGYTFTDYEMHWVRQAPIHGLEWIGVAESETGGTAYNQKFKGRVTITADKSTSTAYMELSSLRSEDTAVYYCAREGITTVATTYYWYFDVWGQGTTVTVSS VL: DVVMTQSPLSLPVTLGQPASISCRSSQSIVHSNGNTYLEWYLQKPGQSPQLLIYKVSNRFSGVPDRFSGSGSGTDFTLKISRVEAEDVGVYYCFQGSHVPLTFGQGTKLEIK | 1.06 | 1.6e-05 | 15100 | 630 | 0.04 | 63500
